This note sets out measurements from publication PMC7352350, “Molecular Interactions Stabilizing the Promatrix Metalloprotease-9·Serglycin Heteromer” (International Journal of Molecular Sciences, 2020).

B7: proMMP-9 purified from THP-1 cells (enzyme, human (endogenous in THP-1), UniProt P14780 20-707, looked up)
chain: APRQRQSTLVLFPGDLRTNLTDRQLAEEYLYRYGYTRVAEMRGESKSLGPALLLLQKQLSLPETGELDSATLKAMRTPRCGVPDLGRFQTFEGDLKWHHHNITYWIQNYSEDLPRAVIDDAFARAFALWSAVTPLTFTRVYSRDADIVIQFGVAEHGDGYPFDGKDGLLAHAFPPGPGIQGDAHFDDDELWSLGKGVVVPTRFGNADGAACHFPFIFEGRSYSACTTDGRSDGLPWCSTTANYDTDDRFGFCPSERLYTQDGNADGKPCQFPFIFQGQSYSACTTDGRSDGYRWCATTANYDRDKLFGFCPTRADSTVMGGNSAGELCVFPFTFLGKEYSTCTSEGRGDGRLWCATTSNFDSDKKWGFCPDQGYSLFLVAAHEFGHALGLDHSSVPEALMYPMYRFTEGPPLHKDDVNGIRHLYGPRPEPEPRPPTTTTPQPTAPPTVCPTGPPTVHPSERPTAGPTGPPSAGPTGPPTAGPSTATTVPLSPVDDACNVNIFDAIAEIGNQLYLFKDGKYWRFSEGRGSRPQGPFLIADKWPALPRKLDSVFEERLSKKLFFFSGRQVWVYTGASVLGPRRLDKLGLGADVAQVTGALRSGRGKMLLFSGRRLWRFDVKAQMVDPRSASEVDRMFPGVPLDTHDVFQYREKAYFCQDRFYWRVSSRSELNQVDQVGYVTYDILQCPED
notes: matrix metalloprotease-9 proenzyme, human; pre domain cleaved off, the mature proenzyme is 20-707; the preparation holds a small amount of TIMP-1; monomer and reduction-sensitive homomultimer; also called pMMP-9; promatrix metalloprotease-9; source: purified from conditioned medium of PMA-stimulated THP-1 cells (Q-Sepharose pass-through, gelatin-Sepharose)
B11: recombinant human His-tagged serglycin (natural protein, UniProt P10124 28-158, looked up)
chain: YPTRRARYQWVRCNPDSNSANCLEEKGPMFELLPGESNKIPRLRTDLFPKTRIQDLNRIFPLSEDYSGSGFGSGSGSGSGSGSGFLTEMEQDYQLVDESDAFHDNLRSLDRNLPSDSQDLGQHGLEEDFML
notes: serglycin core protein, human, the tag stands instead of the signal peptide; no GAG chains; numbers count on: the mature protein (1-131); also called Ht-SG; SG core protein; source: bought: ProSpec (produced in Escherichia coli)

The target of data set [1] is B7. In words: peptide or protein array; mutated SG 20-mer peptides on cellulose, incubated with pMMP-9; antibody against MMP-9. The conditions noted are these: both partners purified.
Data set [2] concerns the molecule itself. The data set can be described thus: SDS-PAGE, Western blotting and gelatin zymography under non-reducing and reducing conditions; purified preparations; SDS-stable, reduction-sensitive homomultimer beside the monomer. A general note: Immunoblotting shows a protein as a band on a membrane.
For data set [3], the target named is B11. In words: peptide or protein array; mutated FnII and HPX 20-mer peptides on cellulose, incubated with Ht-SG; antibodies against SG. The conditions noted are these: both partners purified.
Data set [4] deals with B7. In words: peptide or protein array; 20-mer walk of the SG core protein on cellulose, two-residue shift; 8.8 ul of 11.2 ug/mL proMMP-9 in 10 mL blocking buffer, 1-4 h, room temperature; antibody against MMP-9. The conditions noted are these: both partners purified.
The target in data set [5] is B7. In words: far-Western, overlay or dot blot; slot blot: 200 ng Ht-SG on a polyvinyl difluoride membrane, blocked with milk powder, incubated with pMMP-9 for 2.5 h at room temperature; detected with antibody against proMMP-9. Conditions: both partners purified.

B1: SG peptide 23 with D46 changed to A (peptide, UniProt P10124 72-91, looked up)
peptide: TALFPKTRIQDLNRIFPLSE
notes: serglycin core protein, mutated 20-mer of spot 23; numbers count on: the mature protein (1-131); source: synthetic peptide on a cellulose membrane
Regarding B1, the binding result in data set [1] is on record as “binds”.

B2: recombinant proMMP-9 lacking the HPX domain (domain or fragment, human, UniProt P14780 20-515, looked up)
chain: APRQRQSTLVLFPGDLRTNLTDRQLAEEYLYRYGYTRVAEMRGESKSLGPALLLLQKQLSLPETGELDSATLKAMRTPRCGVPDLGRFQTFEGDLKWHHHNITYWIQNYSEDLPRAVIDDAFARAFALWSAVTPLTFTRVYSRDADIVIQFGVAEHGDGYPFDGKDGLLAHAFPPGPGIQGDAHFDDDELWSLGKGVVVPTRFGNADGAACHFPFIFEGRSYSACTTDGRSDGLPWCSTTANYDTDDRFGFCPSERLYTQDGNADGKPCQFPFIFQGQSYSACTTDGRSDGYRWCATTANYDRDKLFGFCPTRADSTVMGGNSAGELCVFPFTFLGKEYSTCTSEGRGDGRLWCATTSNFDSDKKWGFCPDQGYSLFLVAAHEFGHALGLDHSSVPEALMYPMYRFTEGPPLHKDDVNGIRHLYGPRPEPEPRPPTTTTPQPTAPPTVCPTGPPTVHPSERPTAGPTGPPSAGPTGPPTAGPSTATTVPLSPVDDA
notes: MMP-9 proenzyme, human; stop codon behind the codon for A515; the mature proenzyme starts at 20; also called rpMMP-9ΔHPX; proMMP-9ΔHPX; source: Sf9, baculovirus, purified (gelatin-Sepharose)
In the case of B2, the binding result in data set [2] is “binds”.

B3: HPX peptide 69 with Y672 mutated (peptide, UniProt P14780 657-676, looked up)
peptide: VPLDTHDVFQYREKAAFCQD
notes: MMP-9 HPX domain, mutated 20-mer of spot 69; source: synthetic peptide on a cellulose membrane
For B3, in data set [3], the binding result is on record as “binds”.

B4: HPX peptide 41 with D609 mutated (peptide, UniProt P14780 601-620, looked up)
peptide: LDKLGLGAAVAQVTGALRSG
notes: MMP-9 HPX domain, mutated 20-mer of spot 41; source: synthetic peptide on a cellulose membrane
As for B4, the binding result in data set [3] was “binds”.

B5: HPX peptide 69 with F673 mutated (peptide, UniProt P14780 657-676, looked up)
peptide: VPLDTHDVFQYREKAYGCQD
notes: as for B3
Regarding B5, in data set [3], the binding result was “binds”.

B6: SG peptide 53 (peptide, UniProt P10124 132-151, looked up)
peptide: NLRSLDRNLPSDSQDLGQHG
notes: serglycin core protein, spot 53 of the 20-mer walk with two-residue shift; numbers count on: the mature protein (1-131); source: synthetic peptide on a cellulose membrane
Turning to B6, the binding result in data set [4] is given as “binds”.

As for B7, the binding result in data set [2] is “binds”.

B8: recombinant full-length proMMP-9 (enzyme, human, UniProt P14780 20-707, looked up)
chain: APRQRQSTLVLFPGDLRTNLTDRQLAEEYLYRYGYTRVAEMRGESKSLGPALLLLQKQLSLPETGELDSATLKAMRTPRCGVPDLGRFQTFEGDLKWHHHNITYWIQNYSEDLPRAVIDDAFARAFALWSAVTPLTFTRVYSRDADIVIQFGVAEHGDGYPFDGKDGLLAHAFPPGPGIQGDAHFDDDELWSLGKGVVVPTRFGNADGAACHFPFIFEGRSYSACTTDGRSDGLPWCSTTANYDTDDRFGFCPSERLYTQDGNADGKPCQFPFIFQGQSYSACTTDGRSDGYRWCATTANYDRDKLFGFCPTRADSTVMGGNSAGELCVFPFTFLGKEYSTCTSEGRGDGRLWCATTSNFDSDKKWGFCPDQGYSLFLVAAHEFGHALGLDHSSVPEALMYPMYRFTEGPPLHKDDVNGIRHLYGPRPEPEPRPPTTTTPQPTAPPTVCPTGPPTVHPSERPTAGPTGPPSAGPTGPPTAGPSTATTVPLSPVDDACNVNIFDAIAEIGNQLYLFKDGKYWRFSEGRGSRPQGPFLIADKWPALPRKLDSVFEERLSKKLFFFSGRQVWVYTGASVLGPRRLDKLGLGADVAQVTGALRSGRGKMLLFSGRRLWRFDVKAQMVDPRSASEVDRMFPGVPLDTHDVFQYREKAYFCQDRFYWRVSSRSELNQVDQVGYVTYDILQCPED
notes: matrix metalloprotease-9 proenzyme, human, full-length; pre domain cleaved off, the mature proenzyme is 20-707; also called rpMMP-9; source: Sf9, baculovirus, purified (gelatin-Sepharose)
B8: the binding result in data set [2] was “binds”.

B9: SG peptide 21 with D46 changed to A (peptide, UniProt P10124 68-87, looked up)
peptide: PRLRTALFPKTRIQDLNRIF
notes: serglycin core protein, mutated 20-mer of spot 21; numbers count on: the mature protein (1-131); source: synthetic peptide on a cellulose membrane
B9: the binding result in data set [1] is “binds”.

B10: SG peptide 54 (peptide, UniProt P10124 134-153, looked up)
peptide: RSLDRNLPSDSQDLGQHGLE
notes: serglycin core protein, spot 54 of the 20-mer walk with two-residue shift; numbers count on: the mature protein (1-131); source: synthetic peptide on a cellulose membrane
On to B10, for which the binding result in data set [4] is on record as “binds”. For B11, in data set [5], the binding result is on record as “binds”.
